Laboratory results as given in article PMC2675908, “Direct Observation of ATP-Induced Conformational Changes in Single P2X4 Receptors” (PLOS Biology, 2009).

Target: the molecule itself
Assay: native gel or EMSA; native PAGE, 4%-13% acrylamide gradient gel, sample buffer with 1% deoxycholate, silver staining; purified P2X4R

B1: rat P2X4 receptor (receptor, UniProt P51577 1-388, looked up)
chain: MAGCCSVLGSFLFEYDTPRIVLIRSRKVGLMNRAVQLLILAYVIGWVFVWEKGYQETDSVVSSVTTKAKGVAVTNTSQLGFRIWDVADYVIPAQEENSLFIMTNMIVTVNQTQSTCPEIPDKTSICNSDADCTPGSVDTHSSGVATGRCVPFNESVKTCEVAAWCPVENDVGVPTPAFLKAAENFTLLVKNNIWYPKFNFSKRNILPNITTSYLKSCIYNAQTDPFCPIFRLGTIVEDAGHSFQEMAVEGGIMGIQIKWDCNLDRAASLCLPRYSFRRLDTRDLEHNVSPGYNFRFAKYYRDLAGKEQRTLTKAYGIRFDIIVFGKAGKFDIIPTMINVGSGLALLGVATVLCDVIVLYCMKKKYYYRDKKYKYVEDYEQGLSGEMNQ
notes: P2X4 receptor (P2X purinoceptor 4), rat; cDNA encoding rat P2X4R subcloned into pcDNA3.1; Homotrimer by native PAGE (about 150 kDa; monomer about 50 kDa in SDS-PAGE) and by AFM; No tag is mentioned; 1321N1 cells are said not to express P2XRs of their own; also called P2X4Rs; source: human 1321N1 astrocytoma cells, stably transfected (pcDNA3.1)
Question: For B1, which “stoichiometry N” value is on record?
Answer: 3
